Test results taken from paper PMC7293020.

What was measured:
[1] = target: EcSSB (Escherichia coli, UniProt P0AGE0 1-178); experiment: MST
[2] = target: EcSSB and the SSB-IDL fusions; experiment: ITC

EcSSB, sequence (P0AGE0 whole entry, the tested form may be a part): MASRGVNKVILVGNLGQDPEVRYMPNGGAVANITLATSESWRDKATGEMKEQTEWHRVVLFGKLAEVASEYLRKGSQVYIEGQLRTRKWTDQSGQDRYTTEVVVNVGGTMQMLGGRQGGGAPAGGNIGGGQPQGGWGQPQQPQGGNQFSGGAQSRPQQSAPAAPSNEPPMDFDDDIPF

Kd [2] | Binder | Kd [1]
– | TTTTTTTTTTTTTTTTTTTTTTTTTTTTTTTTTTT (ssDNA) [Cy5-dT35] | 1.23 ± 0.29 nM
4.46 to 5.78 µM | Escherichia coli exonuclease I (ExoI) (enzyme) MMNDGKQQSTFLFHDYETFGTHPALDRPAQFAAIRTDSEFNVIGEPEVFYCKPADDYLPQPGAVLITGITPQEARAKGENEAAFAARIHSLFTVPKTCILGYNNVRFDDEVTRNIFYRNFYDPYAWSWQHDNSRWDLLDVMRACYALRPEGINWPENDDGLPSFRLEHLTKANGIEHSNAHDAMADVYATIAMAKLVKTRQPRLFDYLFTHRNKHKLMALIDVPQMKPLVHVSGMFGAWRGNTSWVAPLAWHPENRNAVIMVDLAGDISPLLELDSDTLRERLYTAKTDLGDNAAVPVKLVHINKCPVLAQANTLRPEDADRLGINRQHCLDNLKILRENPQVREKVVAIFAEAEPFTPSDNVDAQLYNGFFSDADRAAMKIVLETEPRNLPALDITFVDKRIEKLLFNYRARNFPGTLDYAEQQRWLEHRRQVFTPEFLQGYADELQMLVQQYADDKEKVALLKALWQYAEEIV | –
